Measured values published in patent US20110263436A1.

Legend:
[1] = target: wildtype HCV core 27-39 fragment (…) (Hepatitis C virus); experiment: flow cytometry titration on yeast displaying the core 27-39 fragment (apparent KD)
[2] = target: HCV NS3 fragment 1190-1216 (…) (Hepatitis C virus); experiment: flow cytometry titration on yeast displaying the NS3 1190-1216 fragment
[3] = target: HCV NS4 fragment 1692-1713 (…) (Hepatitis C virus); experiment: flow cytometry titration on yeast displaying the NS4 1692-1713 fragment

B1: anti-HCV core chimeric antibody (HCV core 201-603-486-333) (antibody, V domains shown)
VH: QIQLVQSGPELQKPGKTVKISCKTSGYTFTDYPMHWVKQAPGKGLKWMGWINTETGEPTRVDDFKGRFAFSLETSASTAYLQINNLKDEDTATYFCARGGGVRRQVMDYWGQGTSVTVSS
VL: DIVMSQSPSSLAVSAGEKVTMSCKSSQSLLNSRTRKNYLVWYQQKPGQSPKLLIYWASTRDSGVPDRFTGSGSGTDFTLTISSVQAEDLAVYYCKQSYNLYTFGGGTKLEIKR
Binder B1 has a Kd [1] of 0.7 nM.

B2: anti-HCV NS3 chimeric antibody (HCV NS3 CHO 17-903-132sc171) (antibody, V domains shown)
VH: EVKLVESGGGLVQPGGSLKLSCATSGFTFSDYYMYWVRQTPEKRLEWAAYISNGAGSTYYPDTVKGRFTISRDNAKNTLYLQMSRLKSEDTAMYYCARGLWDGLDYWGQGTTLTVSS
VL: DVVMAQTPLSLPVSLGDQASISCRSSQSLVHSNGNTYLHWYLQRPGQSPKLLIYKVSNRFSGVPDRFSGSGSGTDFTLKISRVEAEDLGVYFCSQSTHVPYTFGGGTKLEIKR
B2 gave a Kd [2] of 68 nM.

B3: anti-HCV NS4 chimeric antibody (HCV NS4 CHO E99H6C34sc203) (antibody, V domains shown)
VH: QIQLVQSGPELKKPGETVKISCKASGYTFTDYSMHWVNQAPGKGLKWMGWINTETGEPTYADDFKGRFAFSLETSASTAYLQINNLKNEDTATYFCTRGGTGYWGQGTTLTVSS
VL: DVVMTQTPLSLPVSLGDQASISCRSSQSLVYSNGNTYLHWYLQKPGQSPKLLIYKVSNRFSGVPDRFSGSGSGTDFTLKISRVEAEDLGVYFCSQSTHVPWTFGGGTKLEIKR
Work on B3 yielded a Kd [3] of 0.5 nM.
